Experimental findings from PMC10696396, “HilE represses the activity of the Salmonella virulence regulator HilD via a mechanism distinct from that of intestinal long-chain fatty acids” (The Journal of Biological Chemistry, 2023) are described below.

In general, Kd refers to the free concentration of one partner at which half of the binding sites on the other are occupied at equilibrium, for simple one-to-one binding. The term stoichiometry N denotes the number of molecules, sites or subunits per partner or assembly.

For assay [1], the target named is EYFP-HilD (Salmonella enterica) (UniProt P0CL08). Description: MST; HilE titrated against EYFP-HilD preincubated with 1% DMSO; MST on-time 1.5 s, 25 °C.
Assay [2] has as its target HilD (full-length, unfused) (Salmonella enterica) (UniProt P0CL08). Description: SEC-MALS; Superdex 75 Increase 10/300 GL, 50 mM NaH2PO4 pH 7.0, 200 mM NaCl, 0.5 ml/min; protein concentrations of 100 μM (Fig. 4, D and E).
The target of assay [3] is EYFP-HilD (Salmonella enterica) (UniProt P0CL08). Description: MST; HilE titrated against 50 nM EYFP-HilD; 25 °C, 0.05% Pluronic F-127, MST on-time 1.5 s.

In the case of HilE (natural protein), the Kd in assay [1] was found to be 1630 nM; in assay [3], 1820 nM. In assay [2], this substance had a stoichiometry N of 1.
